In patent CN117886936A:

Biological target: hCD47-ECD-his (human) (UniProt Q08722)
Test: ELISA on coated human CD47-his after pre-incubating the antibody with human red blood cells (1E8/well)

Sequence of UniProt Q08722 (Q08722 other isoform, or with tags, fused parts or gaps): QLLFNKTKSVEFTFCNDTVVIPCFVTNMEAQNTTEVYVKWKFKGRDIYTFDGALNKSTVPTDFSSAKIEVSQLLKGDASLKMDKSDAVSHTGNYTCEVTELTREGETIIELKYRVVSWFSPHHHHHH

EC50: 3.15 µg/mL
Substance: ALX148
